From paper PMC6684798, “Structural basis for the target specificity of actin histidine methyltransferase SETD3” (Nature Communications, 2019)

Assays:
[1] = target: T1, SETD3 N255A (Homo sapiens, UniProt Q86TU7, N256A); experiment: MALDI-TOF analysis of K73(66–88) methylation by N255A (Fig. 3d); assay type: biochemical; details: pH 10.5, 37 °C, 3 μM N255A, 10 µM peptide, 40 µM SAM
T1 construct: GST (cleaved yes); made in house; host or cells: Escherichia coli BL21(DE3) CodonPlus
T1 sequence (Q86TU7 1-594 N256A): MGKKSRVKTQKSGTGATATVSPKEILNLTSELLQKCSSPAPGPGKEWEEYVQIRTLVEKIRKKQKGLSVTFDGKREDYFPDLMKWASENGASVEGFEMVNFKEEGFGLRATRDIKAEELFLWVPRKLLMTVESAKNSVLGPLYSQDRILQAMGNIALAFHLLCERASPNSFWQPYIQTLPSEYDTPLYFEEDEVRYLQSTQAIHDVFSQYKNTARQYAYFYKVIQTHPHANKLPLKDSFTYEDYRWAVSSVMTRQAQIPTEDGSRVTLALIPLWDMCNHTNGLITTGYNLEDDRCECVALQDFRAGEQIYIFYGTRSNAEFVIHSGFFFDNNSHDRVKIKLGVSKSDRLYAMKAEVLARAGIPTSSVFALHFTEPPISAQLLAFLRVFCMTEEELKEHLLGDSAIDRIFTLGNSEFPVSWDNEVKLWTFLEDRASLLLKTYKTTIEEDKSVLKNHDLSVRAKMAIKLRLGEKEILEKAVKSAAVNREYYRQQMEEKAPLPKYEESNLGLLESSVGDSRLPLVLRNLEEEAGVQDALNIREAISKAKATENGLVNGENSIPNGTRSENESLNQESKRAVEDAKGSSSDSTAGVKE
Procedure: Fig. 3 Kinetics of SETD3 on H73 and K73 peptides. a Comparison of activities of three variants (WT, N255A, and N255V) on H73(66–80) peptide. The assays were performed at room temperature (~22 °C) and pH 8.0 using [WT] = 0.18 μM, [N255A] = 0.18 μM, and [N255V] = 0.72 μM. b Comparison of SETD3 WT activities on two K73 peptides (residues 66–80 and 66–88). The assays were performed at 37 °C and pH 10.5 using [WT] = 3 and 15 μM, respectively, for the long and short peptides. c Comparison of activities of three variants (N255A, N255V, and WT) on K73(66–88) peptide. The assays were performed at 37 °C and pH 10.5 using [N255A] = 90 nM, [N255V] = 0.72 μM and [WT] = 4 μM. Data represent the mean ± SD of N number of independent determinations (N = 3 for the WT and N = 2 for the mutants) performed in duplicate. Source data are provided as a Source Data file. d, e Mass spectrometry analysis of K73(66–88) methylation kinetic showing representative spectra at various time points for N255A variant (panel d) and SETD3 WT enzyme (panel e). The assays were performed at 37 °C and pH 10.5 using 3 μM for both N255A and WT. f In vitro methylation reactions with SETD3, indicated full-length actin proteins, and radiolabeled methyl donor (^3H-SAM). Right, Reactions were resolved by SDS–PAGE and activity was visualized by autoradiography. […] The first column head is 'SETD3', and the substrate peptide is printed only on the plot axis. / Panel b: the first column head is 'SETD3 (WT)', and the rows are K73 peptide substrates.
(§1) Recombinant human SETD3 (pXC2003) was expressed as a GST-fusion[22] in Escherichia coli BL21(DE3) CodonPlus^TM cells (Stratagene). […]
Actin K73 peptide (residues 66–88) was used as a substrate for SETD3 (Fig. 3d, e). […] We note that samples diluted into a 0.1% (v/v) TFA solution in water could not be detected by MALDI-TOF, thus the acetonitrile additive is necessary.

[2] = tested on: SETD3 variants (WT, N255A, N255V); experiment: Comparison of activities of SETD3 variants (Fig. 3a, c); assay type: biochemical, human; details: Fig. 3c, K73(66–88), pH 10.5, 37 °C
Procedure: Fig. 3 Kinetics of SETD3 on H73 and K73 peptides. a Comparison of activities of three variants (WT, N255A, and N255V) on H73(66–80) peptide. The assays were performed at room temperature (~22 °C) and pH 8.0 using [WT] = 0.18 μM, [N255A] = 0.18 μM, and [N255V] = 0.72 μM. b Comparison of SETD3 WT activities on two K73 peptides (residues 66–80 and 66–88). The assays were performed at 37 °C and pH 10.5 using [WT] = 3 and 15 μM, respectively, for the long and short peptides. c Comparison of activities of three variants (N255A, N255V, and WT) on K73(66–88) peptide. The assays were performed at 37 °C and pH 10.5 using [N255A] = 90 nM, [N255V] = 0.72 μM and [WT] = 4 μM. Data represent the mean ± SD of N number of independent determinations (N = 3 for the WT and N = 2 for the mutants) performed in duplicate. […]
as §1
A reaction mixture contained 20 mM Tris/HCl (pH 8.0) or 20 mM glycine/NaOH (pH 10.5), 50 mM NaCl, 0.1 mg/ml BSA, 1 mM DTT, 0.18–15 µM SETD3 (as indicated in Fig. 3), 40 µM SAM and varying concentration of peptides. […] The dependence of the velocity of product formation per enzyme on substrate concentration was analyzed according to the Michaelis–Menten equation.

K73(66–88): K73-containing actin H73K peptide, residues 66–88 (TLKYPIEKGIVTNWDDMEKIWHH; UniProt P60709 66-88, looked up, variant H73K)
K73 methylation product ([1]; 10 min): monomethyl lysine | K73 methylation product ([1]; 30 min): dimethyl | K73 methylation product ([1]; 1 h): complete conversion of unmodified substrate to trimethyl lysine | order of activity of SETD3 variants on K73 [2]: N255A≫N255V>WT
